Reference: patent US20050136043

Assays:
GST-Smad2 (full-length) = GST-Smad2 (full-length) (UniProt Q15796)
GST-Smad1 = GST-Smad1 (UniProt Q15797)
GST-Smad3deltaMH1 = GST-Smad3deltaMH1 (UniProt P84022)
GST-Smad3deltaMH1, sequence (P84022 137-425, stated change not applied): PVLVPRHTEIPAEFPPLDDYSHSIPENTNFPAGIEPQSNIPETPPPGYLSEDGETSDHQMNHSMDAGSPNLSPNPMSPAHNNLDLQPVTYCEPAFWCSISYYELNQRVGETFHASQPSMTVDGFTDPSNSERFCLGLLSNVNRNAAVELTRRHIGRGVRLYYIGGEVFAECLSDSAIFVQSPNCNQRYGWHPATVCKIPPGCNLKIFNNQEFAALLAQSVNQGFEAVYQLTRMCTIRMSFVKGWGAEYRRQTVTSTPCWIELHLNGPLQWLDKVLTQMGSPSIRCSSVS

GST-Smad2 (full-length), sequence (Q15796 whole entry): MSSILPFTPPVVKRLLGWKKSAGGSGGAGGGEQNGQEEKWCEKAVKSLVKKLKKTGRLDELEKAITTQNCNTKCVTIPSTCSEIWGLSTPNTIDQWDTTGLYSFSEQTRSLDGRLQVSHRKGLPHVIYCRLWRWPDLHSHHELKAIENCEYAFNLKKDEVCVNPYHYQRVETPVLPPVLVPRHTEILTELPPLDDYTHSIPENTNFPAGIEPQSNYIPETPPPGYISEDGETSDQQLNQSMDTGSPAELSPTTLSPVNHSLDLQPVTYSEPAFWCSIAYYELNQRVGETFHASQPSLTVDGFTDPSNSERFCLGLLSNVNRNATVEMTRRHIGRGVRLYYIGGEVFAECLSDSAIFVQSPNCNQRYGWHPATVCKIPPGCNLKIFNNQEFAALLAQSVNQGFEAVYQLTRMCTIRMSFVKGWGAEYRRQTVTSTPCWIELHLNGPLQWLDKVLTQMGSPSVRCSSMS
GST-Smad1, sequence (Q15797 whole entry): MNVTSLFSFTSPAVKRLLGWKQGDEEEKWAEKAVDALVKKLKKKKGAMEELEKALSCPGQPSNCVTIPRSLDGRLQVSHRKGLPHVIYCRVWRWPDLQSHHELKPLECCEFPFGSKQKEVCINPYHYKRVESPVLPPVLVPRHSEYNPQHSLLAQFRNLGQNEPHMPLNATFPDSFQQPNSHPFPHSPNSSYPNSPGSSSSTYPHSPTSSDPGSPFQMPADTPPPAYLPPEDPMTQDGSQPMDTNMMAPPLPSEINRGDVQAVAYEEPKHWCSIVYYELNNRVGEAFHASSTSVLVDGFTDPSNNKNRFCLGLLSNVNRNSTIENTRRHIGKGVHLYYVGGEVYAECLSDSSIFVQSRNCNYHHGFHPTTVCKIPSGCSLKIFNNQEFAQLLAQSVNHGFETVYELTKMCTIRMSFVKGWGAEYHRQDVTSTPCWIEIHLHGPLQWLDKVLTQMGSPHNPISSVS

GST-TβR-I (GST fused to the cytoplasmic part, residues 148-503, of constitutively active TβR-I T204D, FLAG-tagged at the C-terminus)
phosphorylation of substrate in in vitro kinase assay (32P, SDS-PAGE, phosphorimager) (GST-Smad2 (full-length)): Purified GST-TβR-I kinase efficiently phosphorylated itself, as well as the C-terminal part of Smad3 and full-length GST-Smad2 as exogenous substrates | phosphorylation of substrate in in vitro kinase assay (32P, SDS-PAGE, phosphorimager) (GST-Smad1): no phosphorylation of GST-Smad1 was observed | phosphorylation of substrate in in vitro kinase assay (32P, SDS-PAGE, phosphorimager) (GST-Smad3deltaMH1): Purified GST-TβR-I kinase efficiently phosphorylated itself, as well as the C-terminal part of Smad3 and full-length GST-Smad2 as exogenous substrates
